# Assay results reported in patent US20140294898A1 (published 2014).
# Positions of bridges follow the written chain, without caps; N, C: chain ends. Non-standard residues stand in square brackets, D forms with d. Phe(4-tBu) = CC(C)(C)c1ccc(C[C@H](N)C(=O)O)cc1; Phe(4-Br) = N[C@@H](Cc1ccc(Br)cc1)C(=O)O; Phe(4-Cl) = N[C@@H](Cc1ccc(Cl)cc1)C(=O)O; Phe(4-F) = N[C@@H](Cc1ccc(F)cc1)C(=O)O; 3Pal = N[C@@H](Cc1cccnc1)C(=O)O; 4Pal = N[C@@H](Cc1ccncc1)C(=O)O; 3Thi = N[C@@H](Cc1ccsc1)C(=O)O; NMeNle = CCCC[C@H](NC)C(=O)O; dNle = CCCC[C@@H](N)C(=O)O; NMeA = CN[C@@H](C)C(=O)O; Sar = CNCC(=O)O
# B1: Compound No. 70 (peptide)
# peptide: {CH2CO}-F[NMeA]NPHL[Sar]WSW[dNle][NMeNle]RCG-NH2
# modifications: thioether N-14
# SMILES: CCCC[C@H]1NC(=O)[C@H](Cc2c[nH]c3ccccc23)NC(=O)[C@H](CO)NC(=O)[C@H](Cc2c[nH]c3ccccc23)NC(=O)CN(C)C(=O)[C@H](CC(C)C)NC(=O)[C@H](Cc2c[nH]cn2)NC(=O)[C@@H]2CCCN2C(=O)[C@H](CC(N)=O)NC(=O)[C@H](C)N(C)C(=O)[C@H](Cc2ccccc2)NC(=O)CSC[C@@H](C(=O)NCC(N)=O)NC(=O)[C@H](CCCNC(=N)N)NC(=O)[C@H](CCCC)N(C)C1=O
# notes: macrocyclic peptide cyclized via the ClAc moiety with the downstream cysteine
# B2: Compound No. 55 (peptide)
# peptide: {CH2CO}-F[NMeA]NPHLPWSW[NMeNle][NMeNle]RCG-NH2
# modifications: thioether N-14
# SMILES: CCCC[C@H]1C(=O)N(C)[C@@H](CCCC)C(=O)N[C@@H](CCCNC(=N)N)C(=O)N[C@H](C(=O)NCC(N)=O)CSCC(=O)N[C@@H](Cc2ccccc2)C(=O)N(C)[C@@H](C)C(=O)N[C@@H](CC(N)=O)C(=O)N2CCC[C@H]2C(=O)N[C@@H](Cc2c[nH]cn2)C(=O)N[C@@H](CC(C)C)C(=O)N2CCC[C@H]2C(=O)N[C@@H](Cc2c[nH]c3ccccc23)C(=O)N[C@@H](CO)C(=O)N[C@@H](Cc2c[nH]c3ccccc23)C(=O)N1C
# notes: as for B1
# B3: Compound No. 51 (peptide)
# peptide: {CH2CO}-F[NMeA]NPHD[Sar]WSW[NMeNle][NMeNle]RCG-NH2
# modifications: thioether N-14
# SMILES: CCCC[C@H]1C(=O)N(C)[C@@H](CCCC)C(=O)N[C@@H](CCCNC(=N)N)C(=O)N[C@H](C(=O)NCC(N)=O)CSCC(=O)N[C@@H](Cc2ccccc2)C(=O)N(C)[C@@H](C)C(=O)N[C@@H](CC(N)=O)C(=O)N2CCC[C@H]2C(=O)N[C@@H](Cc2c[nH]cn2)C(=O)N[C@@H](CC(=O)O)C(=O)N(C)CC(=O)N[C@@H](Cc2c[nH]c3ccccc23)C(=O)N[C@@H](CO)C(=O)N[C@@H](Cc2c[nH]c3ccccc23)C(=O)N1C
# notes: as for B1
# B4: Compound No. 54 (peptide)
# peptide: {CH2CO}-F[NMeA]NPHLRWSW[NMeNle][NMeNle]RCG-NH2
# modifications: thioether N-14
# SMILES: CCCC[C@H]1C(=O)N(C)[C@@H](CCCC)C(=O)N[C@@H](CCCNC(=N)N)C(=O)N[C@H](C(=O)NCC(N)=O)CSCC(=O)N[C@@H](Cc2ccccc2)C(=O)N(C)[C@@H](C)C(=O)N[C@@H](CC(N)=O)C(=O)N2CCC[C@H]2C(=O)N[C@@H](Cc2c[nH]cn2)C(=O)N[C@@H](CC(C)C)C(=O)N[C@@H](CCCNC(=N)N)C(=O)N[C@@H](Cc2c[nH]c3ccccc23)C(=O)N[C@@H](CO)C(=O)N[C@@H](Cc2c[nH]c3ccccc23)C(=O)N1C
# notes: as for B1
# B5: Compound No. 53 (peptide)
# peptide: {CH2CO}-F[NMeA]NPHLHWSW[NMeNle][NMeNle]RCG-NH2
# modifications: thioether N-14
# SMILES: CCCC[C@H]1C(=O)N(C)[C@@H](CCCC)C(=O)N[C@@H](CCCNC(=N)N)C(=O)N[C@H](C(=O)NCC(N)=O)CSCC(=O)N[C@@H](Cc2ccccc2)C(=O)N(C)[C@@H](C)C(=O)N[C@@H](CC(N)=O)C(=O)N2CCC[C@H]2C(=O)N[C@@H](Cc2c[nH]cn2)C(=O)N[C@@H](CC(C)C)C(=O)N[C@@H](Cc2c[nH]cn2)C(=O)N[C@@H](Cc2c[nH]c3ccccc23)C(=O)N[C@@H](CO)C(=O)N[C@@H](Cc2c[nH]c3ccccc23)C(=O)N1C
# notes: as for B1
# B6: Compound No. 69 (peptide)
# peptide: FANPHLGWSWFXRCG
# HELM: PEPTIDE1{[O=C(C[*:3])[*:2]].F.[meA].N.P.H.L.[Sar].W.S.W.F.[CCCC[C@@H](C(=O)[*:2])N(C)[*:1]].R.C.G.[am]}$PEPTIDE1,PEPTIDE1,1:R3-15:R3$$$V2.0
# SMILES: CCCC[C@H]1C(=O)N[C@@H](CCCNC(=N)N)C(=O)N[C@H](C(=O)NCC(N)=O)CSCC(=O)N[C@@H](Cc2ccccc2)C(=O)N(C)[C@@H](C)C(=O)N[C@@H](CC(N)=O)C(=O)N2CCC[C@H]2C(=O)N[C@@H](Cc2c[nH]cn2)C(=O)N[C@@H](CC(C)C)C(=O)N(C)CC(=O)N[C@@H](Cc2c[nH]c3ccccc23)C(=O)N[C@@H](CO)C(=O)N[C@@H](Cc2c[nH]c3ccccc23)C(=O)N[C@@H](Cc2ccccc2)C(=O)N1C
# notes: macrocyclic peptide, Formula I series; Phe at 11 is not N-methylated; also called Compound 69
# B7: Compound No. 39 (peptide)
# peptide: {CH2CO}-[4Pal][NMeA]NPHL[Sar]WSW[NMeNle][NMeNle]RCG-NH2
# modifications: thioether N-14
# SMILES: CCCC[C@H]1C(=O)N(C)[C@@H](CCCC)C(=O)N[C@@H](CCCNC(=N)N)C(=O)N[C@H](C(=O)NCC(N)=O)CSCC(=O)N[C@@H](Cc2ccncc2)C(=O)N(C)[C@@H](C)C(=O)N[C@@H](CC(N)=O)C(=O)N2CCC[C@H]2C(=O)N[C@@H](Cc2c[nH]cn2)C(=O)N[C@@H](CC(C)C)C(=O)N(C)CC(=O)N[C@@H](Cc2c[nH]c3ccccc23)C(=O)N[C@@H](CO)C(=O)N[C@@H](Cc2c[nH]c3ccccc23)C(=O)N1C
# notes: macrocyclic peptide, Formula I series; also called Compound 39
# B8: Compound No. 32 (peptide)
# peptide: {CH2CO}-[Phe(4-F)][NMeA]NPHL[Sar]WSW[NMeNle][NMeNle]RCG-NH2
# modifications: thioether N-14
# SMILES: CCCC[C@H]1C(=O)N(C)[C@@H](CCCC)C(=O)N[C@@H](CCCNC(=N)N)C(=O)N[C@H](C(=O)NCC(N)=O)CSCC(=O)N[C@@H](Cc2ccc(F)cc2)C(=O)N(C)[C@@H](C)C(=O)N[C@@H](CC(N)=O)C(=O)N2CCC[C@H]2C(=O)N[C@@H](Cc2c[nH]cn2)C(=O)N[C@@H](CC(C)C)C(=O)N(C)CC(=O)N[C@@H](Cc2c[nH]c3ccccc23)C(=O)N[C@@H](CO)C(=O)N[C@@H](Cc2c[nH]c3ccccc23)C(=O)N1C
# notes: macrocyclic peptide, Formula I series; also called Compound 32
# B9: Compound No. 40 (peptide)
# peptide: {CH2CO}-[3Thi][NMeA]NPHL[Sar]WSW[NMeNle][NMeNle]RCG-NH2
# modifications: thioether N-14
# SMILES: CCCC[C@H]1C(=O)N(C)[C@@H](CCCC)C(=O)N[C@@H](CCCNC(=N)N)C(=O)N[C@H](C(=O)NCC(N)=O)CSCC(=O)N[C@@H](Cc2ccsc2)C(=O)N(C)[C@@H](C)C(=O)N[C@@H](CC(N)=O)C(=O)N2CCC[C@H]2C(=O)N[C@@H](Cc2c[nH]cn2)C(=O)N[C@@H](CC(C)C)C(=O)N(C)CC(=O)N[C@@H](Cc2c[nH]c3ccccc23)C(=O)N[C@@H](CO)C(=O)N[C@@H](Cc2c[nH]c3ccccc23)C(=O)N1C
# notes: macrocyclic peptide, Formula I series; also called Compound 40
# B10: Compound No. 33 (peptide)
# peptide: {CH2CO}-[Phe(4-Cl)][NMeA]NPHL[Sar]WSW[NMeNle][NMeNle]RCG-NH2
# modifications: thioether N-14
# SMILES: CCCC[C@H]1C(=O)N(C)[C@@H](CCCC)C(=O)N[C@@H](CCCNC(=N)N)C(=O)N[C@H](C(=O)NCC(N)=O)CSCC(=O)N[C@@H](Cc2ccc(Cl)cc2)C(=O)N(C)[C@@H](C)C(=O)N[C@@H](CC(N)=O)C(=O)N2CCC[C@H]2C(=O)N[C@@H](Cc2c[nH]cn2)C(=O)N[C@@H](CC(C)C)C(=O)N(C)CC(=O)N[C@@H](Cc2c[nH]c3ccccc23)C(=O)N[C@@H](CO)C(=O)N[C@@H](Cc2c[nH]c3ccccc23)C(=O)N1C
# notes: macrocyclic peptide, Formula I series; also called Compound 33
# B11: Compound No. 38 (peptide)
# peptide: {CH2CO}-[3Pal][NMeA]NPHL[Sar]WSW[NMeNle][NMeNle]RCG-NH2
# modifications: thioether N-14
# SMILES: CCCC[C@H]1C(=O)N(C)[C@@H](CCCC)C(=O)N[C@@H](CCCNC(=N)N)C(=O)N[C@H](C(=O)NCC(N)=O)CSCC(=O)N[C@@H](Cc2cccnc2)C(=O)N(C)[C@@H](C)C(=O)N[C@@H](CC(N)=O)C(=O)N2CCC[C@H]2C(=O)N[C@@H](Cc2c[nH]cn2)C(=O)N[C@@H](CC(C)C)C(=O)N(C)CC(=O)N[C@@H](Cc2c[nH]c3ccccc23)C(=O)N[C@@H](CO)C(=O)N[C@@H](Cc2c[nH]c3ccccc23)C(=O)N1C
# notes: macrocyclic peptide, Formula I series; also called Compound 38
# B12: Compound No. 52 (peptide)
# peptide: FANPHLXWSWXXRCG
# modifications: ClAc on N-terminus cyclized as thioether with Cys14; mAla (N-methyl-Ala) at 2; Dab (2,4-diaminobutyric acid, written X) at 7; mNle (N-methyl-norleucine, written X) at 11 and 12; C-terminal NH2
# notes: macrocyclic peptide, Formula I series; also called Compound 52
# B13: Compound No. 37 (peptide)
# peptide: {CH2CO}-[Phe(4-tBu)][NMeA]NPHL[Sar]WSW[NMeNle][NMeNle]RCG-NH2
# modifications: thioether N-14
# SMILES: CCCC[C@H]1C(=O)N(C)[C@@H](CCCC)C(=O)N[C@@H](CCCNC(=N)N)C(=O)N[C@H](C(=O)NCC(N)=O)CSCC(=O)N[C@@H](Cc2ccc(C(C)(C)C)cc2)C(=O)N(C)[C@@H](C)C(=O)N[C@@H](CC(N)=O)C(=O)N2CCC[C@H]2C(=O)N[C@@H](Cc2c[nH]cn2)C(=O)N[C@@H](CC(C)C)C(=O)N(C)CC(=O)N[C@@H](Cc2c[nH]c3ccccc23)C(=O)N[C@@H](CO)C(=O)N[C@@H](Cc2c[nH]c3ccccc23)C(=O)N1C
# notes: macrocyclic peptide, Formula I series; also called Compound 37
# B14: Compound No. 34 (peptide)
# peptide: {CH2CO}-[Phe(4-Br)][NMeA]NPHL[Sar]WSW[NMeNle][NMeNle]RCG-NH2
# modifications: thioether N-14
# SMILES: CCCC[C@H]1C(=O)N(C)[C@@H](CCCC)C(=O)N[C@@H](CCCNC(=N)N)C(=O)N[C@H](C(=O)NCC(N)=O)CSCC(=O)N[C@@H](Cc2ccc(Br)cc2)C(=O)N(C)[C@@H](C)C(=O)N[C@@H](CC(N)=O)C(=O)N2CCC[C@H]2C(=O)N[C@@H](Cc2c[nH]cn2)C(=O)N[C@@H](CC(C)C)C(=O)N(C)CC(=O)N[C@@H](Cc2c[nH]c3ccccc23)C(=O)N[C@@H](CO)C(=O)N[C@@H](Cc2c[nH]c3ccccc23)C(=O)N1C
# notes: macrocyclic peptide, Formula I series; also called Compound 34
# Target: T1, hPDL1(19-239)-TVMV-His (human, UniProt Q9NZQ7 19-239)
# T1 construct: The construct name says 19-239, the running text says amino acids 18-239; Expressed in HEK293T cells; also called PD-L1-His; PD-L1-TVMV-His
# Experiment: HTRF competition, PD-1-Ig (20 nM) binding to human PD-L1-His (10 nM)
# Method: All binding studies were performed in an HTRF assay buffer consisting of dPBS supplemented with 0.1% (w/v) bovine serum albumin and 0.05% (v/v) Tween-20. […] PD-L1 fusion proteins from either human, cynomologous macaques, or mouse were used. HTRF detection was achieved using europium crypate-labeled anti-Ig monoclonal antibody (1 nM final) and allophycocyanin (APC) labeled anti-His monoclonal antibody (20 nM final). Antibodies were diluted in HTRF detection buffer and 5 μl was dispensed on top of binding reaction. The reaction was allowed to equilibrate for 30 minutes and signal (665 nm/620 nm ratio) was obtained using an EnVision fluorometer. […]
# HTRF Experiments were performed essentially as outlined supra. Variant macrocyclic peptides were created as outlined herein.
# T1 sequence (Q9NZQ7 other isoform, or with tags, fused parts or gaps limits assumed): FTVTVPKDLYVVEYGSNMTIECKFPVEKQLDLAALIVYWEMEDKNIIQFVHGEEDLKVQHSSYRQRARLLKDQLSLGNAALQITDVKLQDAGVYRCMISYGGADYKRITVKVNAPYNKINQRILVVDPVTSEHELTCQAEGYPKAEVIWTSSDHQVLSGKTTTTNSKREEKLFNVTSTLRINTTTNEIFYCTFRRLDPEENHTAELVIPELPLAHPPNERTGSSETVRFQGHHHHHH
row,IC50,Binder
1,8680 nM,B1
2,4 nM,B2
3,23 nM,B3
4,26 nM,B4
5,34 nM,B5

# Target: T2, human PD-L1 (human, UniProt Q9NZQ7 19-239, limits assumed)
# T2 construct: also called Hu PD-L1; hPD-L1
# Experiment: cell binding assay, inhibition of Hu PD-L1/PD-1 binding
# T2 sequence (Q9NZQ7 19-239 limits assumed): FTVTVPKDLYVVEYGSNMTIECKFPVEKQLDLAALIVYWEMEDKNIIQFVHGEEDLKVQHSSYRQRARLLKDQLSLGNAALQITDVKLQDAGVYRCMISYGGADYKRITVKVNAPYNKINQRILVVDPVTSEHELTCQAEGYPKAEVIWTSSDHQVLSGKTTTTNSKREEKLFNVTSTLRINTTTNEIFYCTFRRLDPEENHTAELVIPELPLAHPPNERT
row,IC50,Binder
1,351 nM,B6
2,283 nM,B7
3,25 nM,B8
4,20 nM,B9
5,7 nM,B10
6,368 nM,B11
7,108 nM,B12
8,2520 nM,B13
9,37 nM,B14
